Legend:
3×MBT domain of L3MBTL1 = assay: Triple SILAC pull-down, 3xMBT/3xMBTD355N ratio (cytoplasmic, nuclear and chromatin fractions of 293T cells); format: binding, human; settings: for 3xMBT/D355N UNC Heavy: experiment with UNC0638 in heavy SILAC media; for 3xMBT/D355N UNC Light: experiment with UNC0638 in light SILAC media;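 on all read-outs here: proteins quantified with MaxQuant, requiring at least two unique peptides and quantification in both label directions, normalized to the mean of proteins from a digested loading control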
G9a and GLP = molecular target: T1, G9a and GLP (Homo sapiens, UniProt Q96KQ7+Q9H9B1); assay: Triple SILAC pull-down after UNC0638 treatment of 293T cells, DMSO/UNC0638 ratio of protein captured by 3×MBT; format: cell-based; settings: for Relative to UNC0638 UNC Heavy: UNC0638 in heavy SILAC media; for Relative to UNC0638 UNC Light: UNC0638 in light SILAC media; for Relative to UNC0638 Average: average of UNC Light and UNC Heavy experiments;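 on all read-outs here: mass spectrometry (Q-Exactive) SILAC quantitation, DMSO/UNC0638 ratio computed after subtracting 3×MBTD355N mutant pull-down background, only proteins with at least twofold 3×MBT over mutant signal considered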
T1 construct: endogenous in cells; host or cells: HEK 293T
T1 sequence (Q96KQ7 2-1210 limits assumed): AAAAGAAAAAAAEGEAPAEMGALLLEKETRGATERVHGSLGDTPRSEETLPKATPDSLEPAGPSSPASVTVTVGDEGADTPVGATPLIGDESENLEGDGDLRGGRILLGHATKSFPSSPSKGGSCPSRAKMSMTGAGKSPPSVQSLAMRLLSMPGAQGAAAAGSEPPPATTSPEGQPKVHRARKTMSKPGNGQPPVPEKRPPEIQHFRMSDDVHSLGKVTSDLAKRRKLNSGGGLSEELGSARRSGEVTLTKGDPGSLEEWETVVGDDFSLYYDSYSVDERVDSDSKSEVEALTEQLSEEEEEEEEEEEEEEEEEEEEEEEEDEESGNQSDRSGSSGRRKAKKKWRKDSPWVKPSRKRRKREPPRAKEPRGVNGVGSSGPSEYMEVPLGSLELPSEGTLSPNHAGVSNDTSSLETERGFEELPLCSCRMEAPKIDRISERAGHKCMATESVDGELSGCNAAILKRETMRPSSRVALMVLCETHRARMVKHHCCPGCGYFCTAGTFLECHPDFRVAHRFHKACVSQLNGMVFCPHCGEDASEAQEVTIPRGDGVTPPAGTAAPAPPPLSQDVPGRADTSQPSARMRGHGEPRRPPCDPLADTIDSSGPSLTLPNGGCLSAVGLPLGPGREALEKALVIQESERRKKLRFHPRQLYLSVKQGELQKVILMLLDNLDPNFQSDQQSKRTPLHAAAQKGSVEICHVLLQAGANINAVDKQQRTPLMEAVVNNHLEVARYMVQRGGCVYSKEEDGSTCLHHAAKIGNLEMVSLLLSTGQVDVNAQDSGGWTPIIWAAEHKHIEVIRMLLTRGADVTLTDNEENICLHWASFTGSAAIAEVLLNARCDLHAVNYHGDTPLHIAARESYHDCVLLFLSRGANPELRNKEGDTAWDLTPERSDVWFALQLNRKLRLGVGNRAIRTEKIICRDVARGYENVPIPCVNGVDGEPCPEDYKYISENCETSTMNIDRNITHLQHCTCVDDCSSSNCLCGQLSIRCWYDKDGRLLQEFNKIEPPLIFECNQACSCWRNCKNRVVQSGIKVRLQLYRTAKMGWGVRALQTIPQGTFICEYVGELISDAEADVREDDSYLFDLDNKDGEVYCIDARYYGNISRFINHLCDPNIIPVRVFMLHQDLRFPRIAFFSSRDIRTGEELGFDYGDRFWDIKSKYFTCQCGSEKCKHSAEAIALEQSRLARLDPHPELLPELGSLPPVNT
T1 sequence (Q9H9B1 2-1298 limits assumed): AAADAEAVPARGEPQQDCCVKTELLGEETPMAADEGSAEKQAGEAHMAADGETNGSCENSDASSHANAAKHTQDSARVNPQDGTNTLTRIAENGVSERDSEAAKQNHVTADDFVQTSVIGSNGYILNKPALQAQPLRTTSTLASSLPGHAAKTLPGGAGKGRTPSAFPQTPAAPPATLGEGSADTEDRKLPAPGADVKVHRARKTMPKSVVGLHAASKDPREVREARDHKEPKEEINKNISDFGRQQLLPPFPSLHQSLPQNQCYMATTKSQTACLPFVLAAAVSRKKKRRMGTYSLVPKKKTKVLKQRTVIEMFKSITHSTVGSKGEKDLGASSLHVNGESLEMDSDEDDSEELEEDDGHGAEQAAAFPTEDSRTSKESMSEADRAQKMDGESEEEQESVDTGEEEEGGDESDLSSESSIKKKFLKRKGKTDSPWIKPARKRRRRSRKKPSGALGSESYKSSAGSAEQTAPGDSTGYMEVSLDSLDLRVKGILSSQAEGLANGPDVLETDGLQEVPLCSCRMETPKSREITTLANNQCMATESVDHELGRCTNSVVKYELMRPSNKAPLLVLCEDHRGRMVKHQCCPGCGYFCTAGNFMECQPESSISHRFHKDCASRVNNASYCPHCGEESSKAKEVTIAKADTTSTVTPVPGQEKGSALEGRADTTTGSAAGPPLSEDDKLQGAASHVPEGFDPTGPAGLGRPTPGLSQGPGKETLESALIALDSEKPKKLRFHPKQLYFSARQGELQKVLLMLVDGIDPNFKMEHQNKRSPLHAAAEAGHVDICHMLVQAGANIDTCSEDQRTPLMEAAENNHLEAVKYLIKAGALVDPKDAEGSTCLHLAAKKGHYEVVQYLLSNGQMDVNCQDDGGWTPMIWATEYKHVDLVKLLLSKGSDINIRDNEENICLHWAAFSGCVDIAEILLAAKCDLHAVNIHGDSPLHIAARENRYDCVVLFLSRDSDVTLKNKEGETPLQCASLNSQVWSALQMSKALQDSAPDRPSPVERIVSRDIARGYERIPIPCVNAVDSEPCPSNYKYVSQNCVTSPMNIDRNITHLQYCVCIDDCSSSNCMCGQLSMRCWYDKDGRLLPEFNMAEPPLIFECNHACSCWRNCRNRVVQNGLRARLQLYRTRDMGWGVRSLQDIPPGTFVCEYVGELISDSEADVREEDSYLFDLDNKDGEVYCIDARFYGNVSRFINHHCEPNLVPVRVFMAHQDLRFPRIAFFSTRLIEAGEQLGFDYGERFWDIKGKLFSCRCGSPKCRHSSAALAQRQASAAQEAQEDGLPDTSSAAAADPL

[1] = SILAC ratio, pull-down 3xMBT vs 3xMBTD355N
[2] = SILAC ratio DMSO/UNC0638 of protein pulled down with 3xMBT
[3] = SILAC ratio 3xMBT vs 3xMBTD355N pull-down, 293T cells, all values in log base 2
[4] = SILAC ratio DMSO relative to UNC0638, pull-down with 3xMBT, all values in log base 2

## TARDBP
3×MBT domain of L3MBTL1; [1]
  3xMBT/D355N UNC Heavy: 2.44 log base 2
  3xMBT/D355N UNC Light: 2.40 log base 2
G9a and GLP; [2]
  Relative to UNC0638 UNC Heavy: 0.18 log base 2
  Relative to UNC0638 UNC Light: 0.21 log base 2
G9a and GLP
  Relative to UNC0638 Average: 0.20 log base 2

## TFG
3×MBT domain of L3MBTL1; [1]
  3xMBT/D355N UNC Heavy: 4.21 log base 2
  3xMBT/D355N UNC Light: 4.03 log base 2
G9a and GLP; [2]
  Relative to UNC0638 UNC Heavy: 0.16 log base 2
  Relative to UNC0638 UNC Light: 0.22 log base 2
G9a and GLP
  Relative to UNC0638 Average: 0.19 log base 2

## THOC2
3×MBT domain of L3MBTL1; [1]
  3xMBT/D355N UNC Heavy: 2.50 log base 2
  3xMBT/D355N UNC Light: 2.01 log base 2
G9a and GLP; [2]
  Relative to UNC0638 UNC Heavy: 0.64 log base 2
  Relative to UNC0638 UNC Light: −0.05 log base 2
G9a and GLP
  Relative to UNC0638 Average: 0.30 log base 2

## TOP2A
3×MBT domain of L3MBTL1; [1]
  3xMBT/D355N UNC Heavy: 2.56 log base 2
  3xMBT/D355N UNC Light: 2.96 log base 2
G9a and GLP; [2]
  Relative to UNC0638 UNC Heavy: 0.42 log base 2
  Relative to UNC0638 UNC Light: −0.18 log base 2
G9a and GLP
  Relative to UNC0638 Average: 0.12 log base 2

## TOP2B
3×MBT domain of L3MBTL1; [1]
  3xMBT/D355N UNC Heavy: 1.61 log base 2
  3xMBT/D355N UNC Light: 2.04 log base 2
G9a and GLP; [2]
  Relative to UNC0638 UNC Heavy: 0.21 log base 2
  Relative to UNC0638 UNC Light: 0.21 log base 2
G9a and GLP
  Relative to UNC0638 Average: 0.21 log base 2

## TRIM25
3×MBT domain of L3MBTL1; [1]
  3xMBT/D355N UNC Heavy: 1.88 log base 2
  3xMBT/D355N UNC Light: 0.76 log base 2
G9a and GLP; [2]
  Relative to UNC0638 UNC Heavy: 0.05 log base 2
  Relative to UNC0638 UNC Light: 0.46 log base 2
G9a and GLP
  Relative to UNC0638 Average: 0.25 log base 2

## TRIP12
3×MBT domain of L3MBTL1; [1]
  3xMBT/D355N UNC Heavy: 0.66 log base 2
  3xMBT/D355N UNC Light: 1.34 log base 2
G9a and GLP; [2]
  Relative to UNC0638 UNC Heavy: 0.46 log base 2
  Relative to UNC0638 UNC Light: −0.24 log base 2
G9a and GLP
  Relative to UNC0638 Average: 0.11 log base 2

## TUBB
3×MBT domain of L3MBTL1; [1]
  3xMBT/D355N UNC Heavy: 1.16 log base 2
  3xMBT/D355N UNC Light: 1.42 log base 2
G9a and GLP; [2]
  Relative to UNC0638 UNC Heavy: 0.31 log base 2
  Relative to UNC0638 UNC Light: 0.14 log base 2
G9a and GLP
  Relative to UNC0638 Average: 0.22 log base 2

## TUBB4B
3×MBT domain of L3MBTL1; [1]
  3xMBT/D355N UNC Heavy: 1.05 log base 2
  3xMBT/D355N UNC Light: 1.75 log base 2
G9a and GLP; [2]
  Relative to UNC0638 UNC Heavy: 0.42 log base 2
  Relative to UNC0638 UNC Light: 0.03 log base 2
G9a and GLP
  Relative to UNC0638 Average: 0.23 log base 2

## UHRF1
3×MBT domain of L3MBTL1; [3]
  3xMBT/D355N UNC Heavy: 3.68 log base 2
  3xMBT/D355N UNC Light: 2.24 log base 2
G9a and GLP; [4]
  Relative to UNC0638 UNC Heavy: 0.54 log base 2
  Relative to UNC0638 UNC Light: −0.45 log base 2
G9a and GLP; all values in log base 2
  Relative to UNC0638 Average: 0.04 log base 2

## USP10
3×MBT domain of L3MBTL1; [1]
  3xMBT/D355N UNC Heavy: 2.00 log base 2
  3xMBT/D355N UNC Light: 2.13 log base 2
G9a and GLP; [2]
  Relative to UNC0638 UNC Heavy: 0.57 log base 2
  Relative to UNC0638 UNC Light: −0.05 log base 2
G9a and GLP
  Relative to UNC0638 Average: 0.26 log base 2

## VRK1
3×MBT domain of L3MBTL1; [1]
  3xMBT/D355N UNC Heavy: 2.10 log base 2
  3xMBT/D355N UNC Light: 2.56 log base 2
G9a and GLP; [2]
  Relative to UNC0638 UNC Heavy: 0.21 log base 2
  Relative to UNC0638 UNC Light: 0.03 log base 2
G9a and GLP
  Relative to UNC0638 Average: 0.12 log base 2

## XRCC5
3×MBT domain of L3MBTL1; [1]
  3xMBT/D355N UNC Heavy: 2.15 log base 2
  3xMBT/D355N UNC Light: 2.80 log base 2
G9a and GLP; [2]
  Relative to UNC0638 UNC Heavy: 0.14 log base 2
  Relative to UNC0638 UNC Light: 0.17 log base 2
G9a and GLP
  Relative to UNC0638 Average: 0.15 log base 2

## YWHAE
3×MBT domain of L3MBTL1; [1]
  3xMBT/D355N UNC Heavy: 1.86 log base 2
  3xMBT/D355N UNC Light: 2.52 log base 2
G9a and GLP; [2]
  Relative to UNC0638 UNC Heavy: 0.58 log base 2
  Relative to UNC0638 UNC Light: −0.12 log base 2
G9a and GLP
  Relative to UNC0638 Average: 0.23 log base 2

## ZFR
3×MBT domain of L3MBTL1; [1]
  3xMBT/D355N UNC Heavy: 2.89 log base 2
  3xMBT/D355N UNC Light: 3.14 log base 2
G9a and GLP; [2]
  Relative to UNC0638 UNC Heavy: 0.09 log base 2
  Relative to UNC0638 UNC Light: 0.13 log base 2
G9a and GLP
  Relative to UNC0638 Average: 0.11 log base 2

## ZNF207
3×MBT domain of L3MBTL1; [1]
  3xMBT/D355N UNC Heavy: 2.48 log base 2
  3xMBT/D355N UNC Light: 3.12 log base 2
G9a and GLP; [2]
  Relative to UNC0638 UNC Heavy: 0.34 log base 2
  Relative to UNC0638 UNC Light: 0.09 log base 2
G9a and GLP
  Relative to UNC0638 Average: 0.21 log base 2

From US20140274782A1, “AFFINITY REAGENTS AND METHODS FOR DETECTION, PURIFICATION, AND PROTEOMIC ANALYSIS OF METHYLATED PROTEINS” (The Board of Trustees of the Leland Stanford Junior …, priority 2013, published 2014)
